Measurements from article PMC2653023, “Improving the functional expression of a Bacillus licheniformis laccase by random and site-directed mutagenesis” (BMC Biotechnology, 2009).
Numbering of substitutions follows the chain as printed. Names and notes keep the numbering of the source.

B1: CotA (Bacillus licheniformis DSM 13 = ATCC 14580) (protein)
chain: MKLEKFVDRLPIPQVLQPQSKSKEMTYYEVTMKEFQQQLHRDLPPTRLFGYNGVYPGPTFEVQKHEKVAVKWLNKLPDRHFLPVDHTLHDDGHHEHEVKTVVHLHGGCTPADSDGYPEAWYTKDFHAKGPFFEREVYEYPNEQDATALWYHDHAMAITRLNVYAGLVGLYFIRDREERSLNLPKGEYEIPLLIQDKSFHEDGSLFYPRQPDNPSPDLPDPSIVPAFCGDTILVNGKVWPFAELEPRKYRFRILNASNTRIFELYFDHDITCHQIGTDGGLLQHPVKVNELVIAPAERCDIIVDFSRAEGKTVTLKKRIGCGGQDADPDTDADIMQFRISKPLKQKDTSSLPRILRKRPFYRRHKINALRNLSLGAAVDQYGRPVLLLNNTKWHEPVTETPALGSTEIWSIINAGRAIHPIHLHLVQFMILDHRPFDIERYQENGELVFTGPAVPPAPNEKGLKDTVKVPPGSVTRIIATFAPYSGRYVWHCHILEHEDYDMMRPLEVTDVRHQ
notes: untagged full-length CotA in pET22b+ (NdeI/EcoRI, own stop codon), recombinant from E. coli BL21(DE3), heat step and Q-Sepharose, ~65 kDa; primer-encoded N-terminus MKLEKFVDR, C-terminus EVTDVRHQ
B2: CotA (Bacillus licheniformis DSM 13 = ATCC 14580; K316N) (protein)
chain: B1 chain with K316N
notes: as for B1
B3: CotA (Bacillus licheniformis DSM 13 = ATCC 14580; D500G/K316N) (protein)
chain: B1 chain with K316N, D500G
notes: as for B1
B4: CotA (Bacillus licheniformis DSM 13 = ATCC 14580; D500G) (protein)
chain: B1 chain with D500G
notes: as for B1

Substrate: CCn1c(=NN=c2sc3cc(S(=O)(=O)O)ccc3n2CC)sc2cc(S(=O)(=O)O)ccc21
Test: purified protein
Assay type: biochemical, Bacillus licheniformis
Details: 0.1 M citrate/phosphate buffer, pH 4.0, room temperature, 5-500 μM ABTS, co-substrate O2, free enzyme

Protein	Km [µM]
B1	6.5 ± 0.2
B2	10.0 ± 0.3
B3	8.4 ± 0.2
B4	9.5 ± 0.2
